Where “and” joins values, the source holds several entries; their conditions need not be identical. Equal values may be shown once. Entries after “also recorded” stand apart in the source; their conditions may differ. Read-outs that look alike come from different tables or passages of the source.
Experiments:
[1] = test system: lambda DNA; assay: Single-molecule DNA sliding assay on flow-stretched DNA (TIRF microscopy); parameters: species or system bacteriophage lambda; one-dimensional diffusion constant: unit not given here; conditions: for One-Dimensional Diffusion Constant (mean D1 ± SEM): lambda DNA, low salt 2-6 mM NaCl
Description: To determine whether AVP-pVIc complexes slide on DNA, Applicants used single-molecule fluorescence microscopy (FIG. 10C) with flow-stretched DNA, (FIG. 10D,E) (Kabata, H. et al. Visualization of single molecules of RNA polymerase sliding along DNA. Science 262, 1561-3 (1993); Harada, Y. et al. Single-molecule imaging of RNA polymerase-DNA interactions in real time. Biophys. J. 76, 709-715 (1999) and Blainey, P. C., van Oijen, A. M., Banerjee, A., Verdine, G. L. & Xie, X. S. A base-excision DNA-repair protein finds intrahelical lesion bases by fast sliding in contact with DNA. Proc Natl Acad Sci USA 103, 5752-7 (2006)). […] Biochemistry 40, 13237-13245 (2001)), and furthermore to diffuse rapidly over tens of thousands of base pairs before dissociating from the DNA. For example, the molecule whose motion is shown in the raw image data in FIG. 12A traveled more than 20,000 base pairs during a 0.9 sec binding event. Despite the optical resolution limit imposed by diffraction, the centroid position of each signal in each frame was determined with 11 nm spatial precision at 3.5 ms time resolution (Gelles, J., Schnapp, B. J. & Sheetz, M. P. Tracking kinesin-driven movements with nanometer-scale precision. Nature 331, 450-3 (1988) and Thompson, R. E., Larson, D. R. & Webb, W. W. Precise nanometer localization analysis for individual fluorescent probes. Biophys J 82, 2775-83 (2002)), FIG. 12B.
Flow cells containing bacteriophage lambda DNA immobilized at one end were constructed as described previously (Blainey, P. C., van Oijen, A. M., Banerjee, A., Verdine, G. L. & Xie, X. S. A base-excision DNA-repair protein finds intrahelical lesion bases by fast sliding in contact with DNA. Proc Natl Acad Sci USA 103, 5752-7 (2006)). Labeled samples of AVP-pVIc complexes were infused at concentrations of 1-2 nM at rates of 20-50 mL/hour. Flow rates were chosen to drive the longitudinal DNA fluctuation faster than the imaging frame rate (Blainey, P. C., van Oijen, A. M., Banerjee, A., Verdine, G. L. & Xie, X. S. A base-excision DNA-repair protein finds intrahelical lesion bases by fast sliding in contact with DNA. Proc Natl Acad Sci USA 103, 5752-7 (2006)). The assay buffers consisted of 10 mM MES (pH 6.5), 2-25 mM NaCl, 50 μM EDTA, 20 mM ethanol, 5 percent glycerol, and, where indicated in the text, reducing agent (DTT and mercaptoethanol gave equivalent results). “Low salt” measurements were conducted with 2-6 mM NaCl; “high salt” measurements were conducted with 20-25 mM NaCl.
Due to the speed and duration of sliding by AVP-pVIc complexes, these events were readily identifiable manually. All AVP-pVIc complex DNA-binding events noted were included in the analyses. Once events had been identified, signals were tracked using Gaussian centroid determination in the Matlab environment. Molecular trajectories were analyzed in Matlab by methods similar to those previously published (Blainey, P. C., van Oijen, A. M., Banerjee, A., Verdine, G. L. & Xie, X. S. A base-excision DNA-repair protein finds intrahelical lesion bases by fast sliding in contact with DNA. Proc Natl Acad Sci USA 103, 5752-7 (2006)).
A question is does pVIc by itself slide on DNA. To address this possibility, Applicants performed a sliding assay (Blainey et al., 2012, Activated Adenovirus Proteinase Slides Along Viral DNA Via One-Dimensional Diffusion to Locate and Process its Substrate and Blainey et al., 2009, Nonspecifically bound proteins spin while diffusing along DNA. Nat Struct Mol Biol 16, 1224-1229 and Blainey et al., 2006, A base-excision DNA-repair protein finds intrahelical lesion bases by fast sliding in contact with DNA. Proc Natl Acad Sci USA 103, 5752-5757) using pVIc labeled with Cy3B at Cys10′. […] The sliding assay, based upon total internal reflection fluorescence microscopy, used phage λ DNA molecules (48,502 base pairs) attached at one end to a glass cover slip surface by a biotin-streptavidin linkage. The area of the cover slip with DNA was placed within a flow cell. […]

[2] = test system: virion precursor proteins in heat-disrupted Ad2 ts-1 virions; assay: Processing of virion precursor proteins in heat-disrupted ts-1 virus; format: biochemical
[3] = biological target: dsDNA; conditions: 12-mer dsDNA, pH 7; McGrath et al. 2001; read-out: KD(app.); cited from earlier work
[4] = biological target: T1, AVP (Human adenovirus C serotype 2, UniProt P03252); conditions: cited from earlier work
T1 sequence (P03252 whole entry): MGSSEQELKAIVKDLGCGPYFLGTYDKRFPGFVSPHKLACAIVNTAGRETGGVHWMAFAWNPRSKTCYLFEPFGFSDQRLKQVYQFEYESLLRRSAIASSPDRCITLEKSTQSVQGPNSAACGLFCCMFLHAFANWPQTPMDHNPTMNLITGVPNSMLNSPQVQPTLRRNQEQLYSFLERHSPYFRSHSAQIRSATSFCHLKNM

[5] = biological target: dsDNA; format: binding
[6] = Detergent requirement for solubility, dynamic light scattering; format: physicochemical
Description: Briefly, the gene for pVI and an expressible gene of VI were synthesized by PCR and inserted into expression vectors. The vectors for pVI and VI were used to transform Escherichia coli BL21 (DE3) Codon Plus cells. Recombinant proteins were expressed in autoinduction media (Studier, F. W. (2005) Protein Expr. Purif. 41, 207-234). Purification of pVI and VI was accomplished by cation-exchange and size exclusion chromatography. The proteins were about 99% pure. pVI and VI required a detergent to keep them in solution. Below a concentration of DDM of 0.0125%, the proteins were insoluble, as determined by dynamic light scattering.

[7] = biological target: T1, AVP
Description: Assays contained 3.38 μM pVI, 6.54 μM AVP and either 3.38 μM 36 bp dsDNA or no DNA. After the indicated time intervals, aliquots were removed and assayed for enzymatic activity. 100% activity is the enzyme activity of 3.38 μM AVP-pVIc complexes bound to DNA. (∘) plus DNA, (∇) minus DNA. […] After 30 min. at 21° C., the amount of AVP-pVIc formed was assayed. (C) SDS-PAGE (15% polyacrylamide gel) analysis of the reactions in (B) except that the concentrations of pVI, AVP and DNA were 26-fold higher. The DNA concentration in the reactions fractionated on the gel increased from left to right. In B and C, parentheses including the same number indicates the ratio of protein to DNA in B and C is the same.
Another question is if DNA is required for the activation of AVP by pVI. Applicants repeated the experiment but in the presence of dsDNA.
To see if both enzyme (AVP) and substrate (pVI) must be on the same molecule of DNA for activation to occur or whether they can interact when bound to different DNA molecules, Applicants incubated increasing concentrations of DNA with a mixture of AVP and pVI, each at a concentration such that both should bind to DNA at any DNA concentration. And then Applicants assayed for enzyme activation (FIG. 6B).

[8] = biological target: T2, Ad2 hexon (human adenovirus serotype 2 (Ad2), UniProt P03277 2-968); assay: summary sentence of Example 1; fluorescence titration of Cy3B-pVI with hexon
T2 construct: also called hexon trimer; major capsid protein hexon
T2 sequence (P03277 2-968 limits assumed): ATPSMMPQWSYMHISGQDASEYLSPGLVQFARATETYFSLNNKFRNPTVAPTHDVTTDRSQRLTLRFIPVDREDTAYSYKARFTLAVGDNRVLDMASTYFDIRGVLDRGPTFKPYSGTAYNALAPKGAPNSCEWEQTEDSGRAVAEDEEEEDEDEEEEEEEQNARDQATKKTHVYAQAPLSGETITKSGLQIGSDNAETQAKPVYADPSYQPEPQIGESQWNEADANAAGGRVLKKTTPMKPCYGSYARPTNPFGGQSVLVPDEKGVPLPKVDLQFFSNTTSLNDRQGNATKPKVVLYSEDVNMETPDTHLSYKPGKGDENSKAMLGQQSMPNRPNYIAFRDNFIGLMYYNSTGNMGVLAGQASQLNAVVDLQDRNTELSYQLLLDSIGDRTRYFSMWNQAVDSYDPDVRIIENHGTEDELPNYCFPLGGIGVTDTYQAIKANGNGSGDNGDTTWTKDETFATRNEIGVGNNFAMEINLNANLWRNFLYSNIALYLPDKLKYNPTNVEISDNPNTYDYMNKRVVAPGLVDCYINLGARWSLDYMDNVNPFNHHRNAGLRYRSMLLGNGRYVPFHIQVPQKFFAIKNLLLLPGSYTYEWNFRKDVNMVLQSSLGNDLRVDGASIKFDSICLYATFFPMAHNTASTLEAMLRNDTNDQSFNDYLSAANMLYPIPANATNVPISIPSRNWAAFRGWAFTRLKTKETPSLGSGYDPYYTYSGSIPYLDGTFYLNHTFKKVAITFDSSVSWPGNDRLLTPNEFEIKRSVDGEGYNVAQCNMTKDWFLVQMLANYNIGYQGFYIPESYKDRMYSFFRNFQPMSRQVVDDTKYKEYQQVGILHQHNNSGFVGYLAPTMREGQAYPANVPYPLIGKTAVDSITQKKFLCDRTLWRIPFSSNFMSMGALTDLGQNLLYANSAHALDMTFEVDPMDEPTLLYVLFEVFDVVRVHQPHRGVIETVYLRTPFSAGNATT

[9] = biological target: T2, Ad2 hexon; assay: fluorescence anisotropy under tight binding conditions; 20 nM Cy3B-pVI titrated with hexon
[10] = biological target: T2, Ad2 hexon; assay: fluorescence quenching; 1 nM Cy3B-pVI titrated with hexon (monomer concentrations), 20 mM Hepes pH 7, 150 mM NaCl

SGPSIVHRKCF [11-Actin-C, last 11 amino acids of β-actin]
One-Dimensional Diffusion Constant (mean D1 ± SEM) [1]: 6.40 (bp)^2/s × 10^−6

AVP: adenovirus proteinase, a 23 kDa cysteine proteinase
sliding along DNA (in words) [1]: does not slide effectively along DNA | processing of precursor proteins after DNase treatment ([2]; heat disrupted ts-1 virus incubated with DNase, 2 or 24 hours): no processing of pVI or the other precursor proteins was observed | time within which all pVI was processed ([2]; heat disrupted ts-1 virus, DNA present): ≤ 24 hours | Kd [3]: 63 nM and 63.1 nM | increase of relative kcat/Km of AVP ([4]; in the presence of DNA): 110 fold | increase of relative kcat/Km of AVP ([4]; in the presence of pVIc): 1130 fold

SIVHRKCF [8-Actin-C, 8-amino acid peptide from the C-terminus of β-actin]
Kd ([5]; 12-mer dsDNA, pH 7, Cy3B label on peptide, read-out: Kd(app.)): 5 ± 0.78 nM | One-Dimensional Diffusion Constant (mean D1 ± SEM) [1]: 5.45 (bp)^2/s × 10^−6

SFRRCGLRQVK [Random peptide, reference compound]
Kd ([5]; 12-mer dsDNA, pH 8, peptide labeled at Cys5′ with Cy3B, read-out: Kd(app.)): 646 ± 75 nM | sliding along DNA (in words) [1]: No Diffusion | sliding along DNA (in words) ([1]; listed as SFRRCGLRQVK): No one-dimensional diffusion of the peptide was observed; also recorded: does not slide along the DNA | cofactor activity in stimulating AVP ([4]; up to a concentration of 60 M, Brown and Mangel 2004): did not act like a cofactor in stimulating AVP

B1: precursor to adenovirus protein VI, pVI (other)
chain: MEDINFASLAPRHGSRPFMGNWQDIGTSNMSGGAFSWGSLWSGIKNFGSTIKNYGSKAWNSSTGQMLRDKLKEQNFQQKVVDGLASGISGVVDLANQAVQNKINSKLDPRPPVEEPPPAVETVSPEGRGEKRPRPDREETLVTQIDEPPSYEEALKQGLPTTRPIAPMATGVLGQHTPVTLDLPPPADTQQKPVLPGPSAVVVTRPSRASLRRAASGPRSMRPVASGNWQSTLNSIVGLGVQSLKRRRCF
notes: range 1-250; also called Cy3B-pVI; adenovirus precursor protein pVI
Kd ([5]; 12-mer dsDNA, 0.02 M NaCl, read-out: KD): 55 nM | Kd ([5]; 12-mer dsDNA, 0.03 M NaCl, read-out: KD): 155 nM | Kd ([5]; 12-mer dsDNA, 0.04 M NaCl, read-out: KD): 328 nM | Kd ([5]; 12-mer dsDNA, 0.05 M NaCl, read-out: KD): 449 nM | Kd ([5]; 12-mer dsDNA, 0.06 M NaCl, read-out: KD): 1040 nM | Kd ([5]; 33-mer dsDNA, 1 mM MgCl2, buffer B pH 8, 21° C., read-out: KD(app.)): 35 nM | one-dimensional diffusion constant [1]: 1.45×10^6 | one-dimensional diffusion constant (mean) ([1]; flow-stretched lambda DNA, low salt): 1.45±0.13×10^6 (bp)^2/s and 1.45×10^6 (bp)^2/s | minimum DDM concentration required to remain in solution [6]: 0.0125% | rate of AVP activation relative to rate at peak DNA concentration (50 nM) ([7]; 77 nM pVI, 130 nM AVP, 320 nM 36-mer dsDNA): 12% | pVI cleaved and used to form active AVP-pVIc complexes ([7]; 3.38 μM pVI, 6.54 μM AVP, 3.38 μM 36 bp dsDNA, by one hour): 100% | enzymatic activity after mixing AVP with pVI ([7]; no DNA): no enzymatic activity was detected | time by which all pVI had disappeared (SDS-PAGE) ([7]; with AVP and 36 bp dsDNA): ≤ 10 minutes | Kd [8]: 1.9 nM and 1.85 nM | stoichiometry of binding of pVI to hexon monomer [9]: 1 pVI per hexon monomer | Kd [10]: 1.8 nM

— patent publication US10065989B2, “Molecular sleds and uses thereof” (The Broad Institute, Inc., priority 2012, dated 2018)
